# Results as given in the RNAGym collection of RNA variant scans (doi:10.1073/pnas.2313332121).
# B1: TPR t1 (parent)
# chain: GACCAAUCUGCCCUCAGAGCUCGAGAACAUCUUCGGAUGCAGAGGAGGCAGGCUUCGGUGGCGCGAUAGCGCCAACGUCCUCAACCUCCAAUGCAUCCCACCACAUGAUGAUGCCUGAAGAGCCUUGGUUUUUUG
# Variants of: B1
# Assay: polymerase ribozyme fitness, log enrichment relative to wild type (log ratio); higher = more active; in vitro selection for triplet polymerase activity
# How it was run: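 Fitness compares each genotype's enrichment to that of the wild type on a logarithmic scale, averaging replicates with inverse-variance weights. The logarithm is base 2. Enrichment came from Illumina sequencing of input and output libraries after one triplicate round of in vitro selection, which included frozen incubation at −7 °C, of PCR-built, transcribed mutant libraries of each subunit of a heterodimeric triplet polymerase ribozyme. Only genotypes with ≥10 input reads and ≥1 read per output were kept.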
row,Variant,polymerase ribozyme fitness (log ratio)
1,GACCAAUCUGCCCUCAGAGCUCGAGAACAUCUUCGGAUGCAGAGGAGGCAGGCUUCGGUGGCACGAUAGCGCCAACGUGCUCAACCUCCAAUGCAUCCCACCACAUGAGGAUGCCUGAAGAGCCUUGGUUUUUUG [G63A C79G U109G],-7.2
2,GACCAAUCUGCCCUCAGAGCUCGAGAACAUCUUCGGAUGCAGAGGAGGCAGGCUUCGGUGGCGCGAUAGCGCCAACGACCUCAACCUCCAAUGCAUCCCACCACAUGAUGAUACCUGAAGAGCCUUGGUUUUUUG [U78A G113A],-1.22
3,GACCAAUCUGCCCUCAGAGCUCGAGAACAUCUUCGGAUGCAGAGGAGGCAGGUUUCGGUGGCGCGAUAGCGCCAACGUCCUCAACCUCCAAUGCAUCCCACCACAUGAUGAUGCCUGAAGAGCCUUGGUUUCUUG [C53U U132C],-0.221
4,GACCAAUCUGCCCUCAGAGCUCGAGAACAUCAUAGGAUGCAGAGGAGGCAGGCUUCGGUGGCGUGAUAGCGCCAACGUCCUCAACGUCCAAUGCAUCCCACCACAUGAUGAUGACUGAAGAGCCUUGGUUUUCUG [U32A C34A C64U C86G C114A U133C],-5.96
5,GACCAAUCUGCCCUAAGAGCUCGAGAACAUCUUCGGAUGCAGAGGAGGCAGGCUUCCGUGGCGCGAUAGCGCCAACGUCCUCAACCUCCAAUGCAUCCCACCACAUGAUGAUGCCUGAAGAGCCUUGGUUUUUUG [C15A G57C],-1.91
6,GACCAAUCUGCCCUCAGAGCUCGAGAACAUCUUCGGAUGCAGAGGAGGCAGGCUUCGGUGGCGCGAUAGCGCCAACGUCCUCACCCUCCAAUGCAUCCCACCACAUGAUGAUGCCUGAAAAGCCUUGGUUUUUUG [A84C G120A],0.816
7,GACCAAUCAGCCCUCAGAGCUCGAGAACAUCUUCGGAUGCAGAGGAGGCAGGCUUCGGUGGGGCGAUAGCGCCAACGUCCUCAACCUCCAAUGCAUUCCACCACAUGAGGAUGCCUGAAGAGCCUUGGUUUUUUG [U9A C62G C97U U109G],-7.26
8,GACCAAUCGGCCCUCAGAGCUCGAGAACAUCUUCGGAUGCAGAGGAGGCAGGCUUCGGUGGCGCGAUAGCGCCAACGUCCUCAACCUCCAAUGCAUCUCACCACAUGAUGAUGCCUGAAGAGCCUUGGUUUUUUG [U9G C98U],-0.308
9,GACCAAUCUGCCCUCAGAGCUCGAGAACAUCUUCGGAUGCAGAGGAGGCAGGCUUCUGUCGCGCGAUAGCGCCAACGUCCUCAACCUCCAAUGCAGCCCACCACAUGAUGAUGCCUGAAGAGCCUUGGUUUUUUG [G57U G60C U96G],-2.78
10,GACCAAUCUGCCCUCAGAGCUCGAGAACAUCUUCGGAUGCAGAUGAGGCAGGCUUCGGUAGCGCGAUAGCGCCAACGUCCUCAACCUCCAAUGCAUCCCACCACAUGAUGAUGCCUGAAGAGCCUUGGCUUUUUG [G44U G60A U129C],-1.49
11,GACCAAUCUGCCCUCAGAGCUCGAGAACAUCUUCGGAUGCAGGGGAGGCAGGCUUCGGUGGCACGAUAGCGCCAACGUCCUCAACCUCCAAUGCAUCCCACCACAUGAUGAUGCCUGAAGAGCCUUGGUUUUUUG [A43G G63A],-3.39
12,GACCAAUCUGCCCUCGGAGCUCGAGAACAUCUUCGGAUGUAGAGGAGGCUGGCUGCGGUGGCGCGAUAGUGCCAACGUUCUCAACCUCCAACGCAUCCCACCACAUGAUGAAGCCUGAAGAGCCUUGGUUUUUUG [A16G C40U A50U U55G C70U C79U U92C U112A],-7.45
13,GACCAAUCUGUCCUCAGAGCUCGGGAACAUCUUCGGAUGCAGAGUAGGCAGGCUUCGGUGGCGCGAUAGCGCCAACGUCCUCAACCUCCAGUGCAUCCCACCACAUGAUGAUGCCUGAAGAGCCUUGGUUUUUUG [C11U A24G G45U A91G],-5.06
14,GACCAAUCUGCCCUCAGAGCUCGAGAACAUCUUCGGAUGCAGAGGAGGCAGGCUUCGGUGGCGCGAUAGAGCCAACGUCCUCAACCUCCAAUGCAUCCCACCACAUGAUGAUGCCUGAAGAGCCUUGGUUUUUUG [C70A],-1.51
15,GACCGAUCUGCCCUCAGAGCUCGAGAACAUCUUCGGAUGCAGAGGAGGCAGGCUUCGGUGGCGCGAUAGCGCCAACGUCCACAACCUCCAAUGCAUCCCACCACAUGAUGAUGCCUGAAGAGCCUUGGUUUUUUG [A5G U81A],-0.807
16,GACCAAUCUGCCCUCAGAGCUCGAGAACAUCUUCGGAUGCAGAGGAGGCAGGCUUCGGUGGCGCGAUAGCGGCAACGUCCUCAACCUCCAAUGCAUCCCACCACAUGAUGAUGCUCGAAGAGCCUUGGUUUUUUG [C72G C115U U116C],-2.72
17,GACUAAUCUGCCCUCAGAGCUCGAGAACAUCUUCGGAUGCAGAUGAGGCAGGCUUCGGUGGCGCGAUAGCGCCAACGUCCUCAACCUCCAAUGCAUCCCACCACAUGAUGAUGCCUGAAGAGCCUUGGUUUUUUG [C4U G44U],-1.74
18,GACCAAUCUGCCCUCAGAACUCGAGAACAUCUUCGGAUGCUGAGGAGGCAGGCUUCGGUGGCGCGAUAGCGCCAACGCCCUCAACCUCCAAUGCAUCCCACCACAUGAUGAUGCCUGAAGAGCCUUGGUUUCUUG [G19A A41U U78C U132C],-4.37
19,GACAAAUCUGCCCUCAGAGCUCGAGAACAUCUUCGGAUGCAGAGGAGGCAGGCUUCGGUGGCGCGAUAGCGACAACGUCCUCAACCUCCAAUGCAUCCCACCACAUGAUGAUACCUGAAGAGCCUUGGUUUUUUG [C4A C72A G113A],-3.57
20,GACCAAUCUGCCCUCAGAGCUCGAGAACAUCUUCGGAUGCAGAGGAGGCAGGGUUCGGUGGCGCGAUAACGCCAACGCCCUCAACCUCCAAUGCAUUCCACCACAUGAUGAUGCCUGAAGAGCCUUGGUUUUUUG [C53G G69A U78C C97U],-2.9
21,GACCAAUCUGCCCUCAGAGAUCGAGGACAUCUUCGGAUGCAGAGGAGGCAGGCUUCGGUGGCUCGAUAGCGCCAACGUCCUCAACCUCCAAUGCAUCCAACCAAAUGAUGAUGCCUGAAGAGCCUUGGUUUUUUG [C20A A26G G63U C99A C104A],-6.09
